Measured values taken from US20200277377A1 (WUXI BIOLOGICS SHANGHAI, published 2020).

T1: hCTLA4_ECD.His (N145Q) (human, UniProt P16410 36-161)
T1 construct: extracellular domain; Glycosylation-site mutein, expressed in HEK293F cells; also called CTLA-4 N145Q
T1 sequence (looked up): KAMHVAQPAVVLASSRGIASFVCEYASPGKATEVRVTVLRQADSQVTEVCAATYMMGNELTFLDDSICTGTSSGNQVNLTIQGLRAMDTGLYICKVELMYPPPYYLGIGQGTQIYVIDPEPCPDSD

B1: W3162-1.146.19-z12-uAb.IgG1K (antibody, V domains shown)
VH: QVQLQESGPGLVKPSETLSLTCSVTYHTITSGYDWTWIRKPPGKGMEWIGYISYSGNTNYNPSLKSRVTISRDTSKNQFFLKLSSVTAADTAVYYCASMMVPHYYVMDAWGQGTLVTVSS
VL: DIVMTQTPLSLSVTPGQPASISCRSSQSLLNSDGNTYLYWYLQKPGQSPQLLIYLVSKLGSGVPNRFSGSGSGTDFTLKISRVEAEDVGVYYCVQGTHDPWTFGGGTKVEIK
notes: Humanized; label says IgG1K
B2: W3162_1.154.8-z35-uAb.IgG1K (antibody, V domains shown)
VH: QVQLVQSGAEVKKPGSSVKVSCKASGYTFTNYFMNWVRQAPGQGLEWMGRVDPEQGRADYAEKFKKRVTITADKSTSTAYMELSSLRSEDTAVYYCARRAMDNYGFAYWGQGTLVTVSS
VL: EIVLTQSPDFQSVTPKEKVTITCSANSALSYMYWYQQKPDQSPKLWVHGTSNLASGVPSRFSGSGSGTDFTLTINSLEAEDAATYYCHHWSNTQWTFGGGTKVEIK
notes: Humanized; label says IgG1K

What was measured:
Murine CTLA-4.ECD-6×His [1] = target: T2, Murine CTLA-4.ECD-6×His (mouse, UniProt P09793 36-161); test: ELISA, coated mouse CTLA-4.ECD-6×His
T2 construct: extracellular domain; Bought; also called mouse CTLA-4.ECD-6×His; mouse CTLA-4 ECD
Description: (§1) ELISA was used to test binding of anti-human CTLA-4 antibodies to human, murine and cynomolgus monkey CTLA-4 protein. A 96-well plate was coated with human CTLA-4.ECD-6×His (1.0 μg/mL), cynomoguls monkey CTLA-4.ECD-6×His (0.5 μg/mL) or mouse CTLA-4.ECD-6×His (0.5 μg/mL) at 4° C. for 16-20 hours. After 1 hour blocking with 2% BSA in DBPS, testing antibodies, as well as positive and negative control antibodies were added to the plates and incubated at room temperature for 1 hour. The binding of the antibodies to the plates were detected by HRP-conjugated goat anti-human IgG antibody (1:5000 dilution) with 1 hour incubation. The color was developed by dispensing 100 μL of TMB substrate for 8 mins, and then stopped by 100 μL of 2N HCl.

hCTLA4_ECD.His (N145Q) [2] = target: T1, hCTLA4_ECD.His (N145Q); test: capture ELISA: W3162-1.146.19-z12 captured on anti-human Fc, hCTLA4-His mutein supernatant titrated (ng/ml), HRP-anti-His [B]
Murine CTLA-4.ECD-6×His [3] = target: T2, Murine CTLA-4.ECD-6×His; test: ELISA, antibody titrated on coated mouse CTLA-4.ECD-6xHis, OD450 [C) Murine CTLA-4]
Description: as §1

hCTLA4_ECD.His (N145Q) [4] = target: T1, hCTLA4_ECD.His (N145Q); test: capture ELISA: W3162-1.154.8-z35 captured on anti-human Fc, hCTLA4-His mutein supernatant titrated (ng/ml), HRP-anti-His [C]

| Binder | EC50 (Murine CTLA-4.ECD-6×His [1]) | EC50 (read off the curve) (hCTLA4_ECD.His (N145Q) [2]) | binding result (Murine CTLA-4.ECD-6×His [3]) | EC50 (read off the curve) (hCTLA4_ECD.His (N145Q) [4]) |
| --- | --- | --- | --- | --- |
| B1 | 0.19 nM | ~0.09 µg/mL |  |  |
| B2 |  |  | no binding (tested: about 7 nM) | ~0.003 µg/mL |
